From publication PMC9531334 come the findings set out here.

The target of this assay is StnCBP-HA-NLuc. Nature of the assay: SLC assay (split-luciferase complementation in leaves). The following applies: luminescence intensity/50 mm2 leaf area; n = 3; parent: est. 3500; read off a plot.

With CLuc-GFP-HC-Pro^O V346I, the response stood at 3300.
